Experimental findings from paper PMC8464072, “YB-1 unwinds mRNA secondary structures in vitro and negatively regulates stress granule assembly in HeLa cells” are described below.

Series [1] addresses T1, YB-1C (UniProt P67809 1-180). In words: fluorescence melting; 130 mM KCl, 30 C; 10:1 protein:DNA; NMR: 25 mM phosphate pH 6.8, 25 mM KCl, 298 K, 50-100 uM protein; EMSA: 20 mM HEPES pH 7.5, 60 mM KCl, room temperature; melting: 10 mM HEPES-KOH pH 7.6, 130 mM KCl, 30 C. The settings on record: protein: recombinant; tags: His tag (Ni-NTA); label: 5' FAM, 3' BHQ1; hairpin. A general note: In EMSA bound probe runs differently from free probe, usually more slowly.

The target in another series is YB-1 (full length) (UniProt P67809 1-324). Briefly: fluorescence melting; 130 mM KCl, 30 C; 10:1 protein:DNA; opening of hairpin; NMR: 25 mM phosphate pH 6.8, 25 mM KCl, 298 K, 50-100 uM protein; EMSA: 20 mM HEPES pH 7.5, 60 mM KCl, room temperature; melting: 10 mM HEPES-KOH pH 7.6, 130 mM KCl, 30 C. The settings on record: protein: recombinant, tags: His tag (Ni-NTA), label: 5' FAM, 3' BHQ1.
YB-1 (full length), sequence (P67809 whole entry): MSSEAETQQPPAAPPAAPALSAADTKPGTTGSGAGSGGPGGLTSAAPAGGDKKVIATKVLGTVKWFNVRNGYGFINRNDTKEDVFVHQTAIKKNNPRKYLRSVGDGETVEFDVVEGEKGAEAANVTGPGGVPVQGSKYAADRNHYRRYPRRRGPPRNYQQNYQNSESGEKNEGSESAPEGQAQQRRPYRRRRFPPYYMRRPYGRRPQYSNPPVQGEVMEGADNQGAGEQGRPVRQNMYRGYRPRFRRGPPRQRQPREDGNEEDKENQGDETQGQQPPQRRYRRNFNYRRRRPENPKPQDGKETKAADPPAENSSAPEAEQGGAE

In series [2] the target is T1, YB-1C. Briefly: NMR (1H-15N HSQC); multiple peaks; NMR: 25 mM phosphate pH 6.8, 25 mM KCl, 298 K, 50-100 uM protein; EMSA: 20 mM HEPES pH 7.5, 60 mM KCl, room temperature; melting: 10 mM HEPES-KOH pH 7.6, 130 mM KCl, 30 C. The settings on record: protein: recombinant; tags: His tag (Ni-NTA); hairpin, 10 bp stem, 4 nt loop.
In series [3] the target is T2, YB-1-KY (UniProt P67809 1-180, K137A;Y138A). Briefly: NMR (1H-15N HSQC); no multiple peaks; stem not destabilized; NMR: 25 mM phosphate pH 6.8, 25 mM KCl, 298 K, 50-100 uM protein; EMSA: 20 mM HEPES pH 7.5, 60 mM KCl, room temperature; melting: 10 mM HEPES-KOH pH 7.6, 130 mM KCl, 30 C. The settings on record: protein: recombinant; tags: His tag (Ni-NTA); hairpin, 10 bp stem, 4 nt loop.
T2 sequence (P67809 1-180 K137A/Y138A): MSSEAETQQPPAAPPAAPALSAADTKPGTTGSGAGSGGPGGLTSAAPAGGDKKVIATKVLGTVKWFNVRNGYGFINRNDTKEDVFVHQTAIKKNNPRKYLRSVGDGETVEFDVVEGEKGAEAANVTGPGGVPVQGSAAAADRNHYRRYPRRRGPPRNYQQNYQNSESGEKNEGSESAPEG

For series [4], the target named is T3, YB-1-RK (UniProt P67809 1-180, R97A;K98A). The series is described as above. The settings on record: protein: recombinant; tags: His tag (Ni-NTA); hairpin, 10 bp stem, 4 nt loop.
T3 sequence (P67809 1-180 R97A/K98A): as the sequence (P67809 1-180 K137A/Y138A) above, with R97A, K98A, A137K, A138Y counted along it
Series [5] has as its target T1, YB-1C. In words: NMR (1H-15N HSQC); single peaks; NMR: 25 mM phosphate pH 6.8, 25 mM KCl, 298 K, 50-100 uM protein; EMSA: 20 mM HEPES pH 7.5, 60 mM KCl, room temperature; melting: 10 mM HEPES-KOH pH 7.6, 130 mM KCl, 30 C. The settings on record: protein: recombinant; tags: His tag (Ni-NTA).
The target of series [6] is T2, YB-1-KY. In words: NMR (1H-15N HSQC); CSD binding unaffected vs wild type; NMR: 25 mM phosphate pH 6.8, 25 mM KCl, 298 K, 50-100 uM protein; EMSA: 20 mM HEPES pH 7.5, 60 mM KCl, room temperature; melting: 10 mM HEPES-KOH pH 7.6, 130 mM KCl, 30 C. The settings on record: protein: recombinant; tags: His tag (Ni-NTA).
The target of series [7] is T3, YB-1-RK. Described as above. The settings on record: protein: recombinant; tags: His tag (Ni-NTA).
Another series has as its target FUS RRM (UniProt P35637 275-385). Briefly: NMR; CSPs (data not shown); no stem opening at 1.75:1; NMR: 25 mM phosphate pH 6.8, 25 mM KCl, 298 K, 50-100 uM protein; EMSA: 20 mM HEPES pH 7.5, 60 mM KCl, room temperature; melting: 10 mM HEPES-KOH pH 7.6, 130 mM KCl, 30 C. The settings on record: protein: recombinant; hairpin, 10 bp stem, 4 nt loop.
Series [8] addresses T1, YB-1C. In words: NMR (1H imino and 1H-15N HSQC); multiple peaks at 1:1, lost at 0.25:1; NMR: 25 mM phosphate pH 6.8, 25 mM KCl, 298 K, 50-100 uM protein; EMSA: 20 mM HEPES pH 7.5, 60 mM KCl, room temperature; melting: 10 mM HEPES-KOH pH 7.6, 130 mM KCl, 30 C. The settings on record: protein: recombinant; tags: His tag (Ni-NTA); hairpin, 10 bp stem, 4 nt loop.

T1 sequence (P67809 1-180): as the sequence (P67809 1-180 K137A/Y138A) above, with A137K, A138Y counted along it
FUS RRM, sequence (P35637 275-385): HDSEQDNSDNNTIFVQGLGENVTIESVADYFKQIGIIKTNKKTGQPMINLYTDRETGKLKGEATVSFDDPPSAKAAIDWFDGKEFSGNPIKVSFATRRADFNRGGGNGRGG

For the molecule GGGGGGGGTTAACCCCCCCC (structured_DNA) [DNA1 hairpin], the binding result with YB-1C [1] and with YB-1 (full length) was “binds” throughout.

In the case of ACAGACAGAACCCCUUCUGUCUGU (structured_RNA) [ACU-4G RNA stem/loop], the binding result in the series with YB-1C [2], with YB-1-KY [3] and in the series with YB-1-RK [4] was “binds” each time.

On to CCCCCCCCCC (ssDNA) [C10], for which the binding result with YB-1C [5], in the series with YB-1-KY [6] and with YB-1-RK [7] was “binds” throughout.

In the case of AAAAAAAAAA (ssDNA) [A10], the binding result in the series with YB-1C [5] was “binds”.

On to TTTTTTTTTT (ssDNA) [T10], for which the binding result in the series with YB-1C [5] is “binds”.

As to ACAGACAGAACCCCTTCTGTCTGT (structured_DNA) [ACT-4G DNA stem/loop], the binding result with FUS RRM and in the series with YB-1C [8] was “binds” throughout.
